Data from patent US20170291954A1.

Biological target: mesothelin on K562.meso cells (erythroblast cell line stably expressing mesothelin)
Experiment: cell-based or functional assay

Q: With “SS1 chimeric antigen receptor (mesothelin specific) on transduced T cells” as the substance, how does the CAR-T cell cytolysis at an Effector:target cell ratio of 10:1 (Cr51 release), K562meso read?
A: 95%
